Target: Fc receptor (FcR) on antigen presenting cells
Test: cell-based or functional assay

**Q.** Which inhibition of IL-2 production in Ig-PLP1 mediated activation of 4E3 T cells does the source give for “Ig-W (from UniProt P01867 1-335) (antibody)” here?
**A.** 50%
